According to patent publication US20250042997A1 (PHYLAXIS BIOSCIENCE, published 2025):

How the values were obtained:
[1] = molecular target: T1, human Siglec-8 (full-length, on transfected CHO or 293 cells, or native on human eosinophils) (human, UniProt Q9NYZ4 17-499); assay: flow cytometry on CHO cells transfected with human Siglec-8; labelled anti-human Fc-gamma secondary; Median RL1-H
Experimental: In additional studies, the parental llama G2 sequence was humanized and multivalent hzSiglec8-G2v14-Fc antibodies were cloned with a reduced effector function xELL human Fe. Binding of bivalent (ex11422; SEQ ID NO: 5 linked to an Fe xELL via linker 2), tetravalent (cx11580; SEQ ID NO: 9 linked to an Fe xELL via linker 2), and hexavalent (cx11579; SEQ ID NO: 10 linked to an Fe xELL via linker 2) hzSiglec8-G2v14-Fc antibodies were assessed by flow cytometry using CHO cells transfected with human Siglec-8. A titration series of the fusion proteins were incubated with the Siglec8-expressing CHO cells (5×10⁴ cells/well) for 30 minutes at 4° C. in FACS Buffer (PBS 1% BSA, 0.1% NaN3 pH 7.4) in 96 well plates. Following one 150 μL wash with FACS buffer, an APC-conjugated anti-human Fcγ specific secondary antibody (Jackson ImmunoResearch) was added, and cells were incubated for 30 minutes at 4° C. Following one additional wash in FACS buffer, bound antibodies were detected via flow cytometry (iQue Intellicyte).
The calculated affinity was similar between the bivalent, tetravalent, and hexavalent hzSiglec8-G2v14-Fc antibodies. The observed Bmax was reduced with increasing valency as anticipated, due the fact that the Fc portion of the antibody was detected in this assay and the ratio of Fc regions to anti-Siglec-8 binding domains is inverse to valency.

[2] = molecular target: T1, human Siglec-8 (full-length, on …); assay: cell-based or functional assay

T1 sequence (Q9NYZ4 17-499): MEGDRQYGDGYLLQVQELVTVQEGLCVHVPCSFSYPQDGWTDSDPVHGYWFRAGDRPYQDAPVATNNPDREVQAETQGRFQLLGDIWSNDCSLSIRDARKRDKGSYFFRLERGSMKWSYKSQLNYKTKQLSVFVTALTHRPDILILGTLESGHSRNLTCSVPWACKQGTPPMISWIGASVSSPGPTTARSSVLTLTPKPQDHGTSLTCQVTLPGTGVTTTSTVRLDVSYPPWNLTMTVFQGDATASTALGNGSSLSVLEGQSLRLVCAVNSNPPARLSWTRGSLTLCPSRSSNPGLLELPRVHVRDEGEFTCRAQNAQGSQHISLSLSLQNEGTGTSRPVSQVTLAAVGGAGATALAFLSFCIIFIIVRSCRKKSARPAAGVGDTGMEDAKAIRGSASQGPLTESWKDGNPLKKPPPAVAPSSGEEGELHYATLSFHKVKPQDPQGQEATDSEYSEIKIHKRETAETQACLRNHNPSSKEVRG

| EC50 (read off the curve) [1] [nM] | Binder | potency of eosinophil killing in the presence of IL-5, fold improvement over the afucosylated AK002 analog [2] [fold] | potency of eosinophil killing in the presence of IL-5, fold increase compared to bivalent hzSiglec8-G2v14-Fc [2] [fold] |
| --- | --- | --- | --- |
| ~0.02 | hexavalent hzSiglec8-G2v14-Fc (xELL) (Fc fusion, Homodimer through the Fc; also called cx11579) EVQLLESGGGEVQPGGSLRLSCAASGSISIFSMYVVAWYRQAPGKEREWVAFIQRGGTANYAESAKGRFTISRDNAKNTVYLQMSSLRAEDTAVYYCNYINTDNEIGGPWGQGTLVTVKPGGSGGSEVQLLESGGGEVQPGGSLRLSCAASGSISIFSMYVVAWYRQAPGKEREWVAFIQRGGTANYAESAKGRFTISRDNAKNTVYLQMSSLRAEDTAVYYCNYINTDNEIGGPWGQGTLVTVKPGGSGGSEVQLLESGGGEVQPGGSLRLSCAASGSISIFSMYVVAWYRQAPGKEREWVAFIQRGGTANYAESAKGRFTISRDNAKNTVYLQMSSLRAEDTAVYYCNYINTDNEIGGPWGQGTLVTVKPGGGGDKTHTCPPCPAPGGPSVFLFPPKPKDTLMISRTPEVTCVVVDVSHEDPEVKFNWYVDGVEVHNAKTKPREEQYNSTYRVVSVLTVLHQDWLNGKEYKCKVSNKALPAPIEKTISKAKGQPREPQVYTLPPSRDELTKNQVSLTCLVKGFYPSDIAVEWESNGQPENNYKTTPPVLDSDGSFFLYSKLTVDKSRWQQGNVFSCSVMHEALHNHYTQKSLSLSPGK |  |  |
| ~0.04 | tetravalent hzSiglec8-G2v14-Fc (xELL) (Fc fusion, Homodimer through the Fc; also called cx11580) EVQLLESGGGEVQPGGSLRLSCAASGSISIFSMYVVAWYRQAPGKEREWVAFIQRGGTANYAESAKGRFTISRDNAKNTVYLQMSSLRAEDTAVYYCNYINTDNEIGGPWGQGTLVTVKPGGSGGSEVQLLESGGGEVQPGGSLRLSCAASGSISIFSMYVVAWYRQAPGKEREWVAFIQRGGTANYAESAKGRFTISRDNAKNTVYLQMSSLRAEDTAVYYCNYINTDNEIGGPWGQGTLVTVKPGGGGDKTHTCPPCPAPGGPSVFLFPPKPKDTLMISRTPEVTCVVVDVSHEDPEVKFNWYVDGVEVHNAKTKPREEQYNSTYRVVSVLTVLHQDWLNGKEYKCKVSNKALPAPIEKTISKAKGQPREPQVYTLPPSRDELTKNQVSLTCLVKGFYPSDIAVEWESNGQPENNYKTTPPVLDSDGSFFLYSKLTVDKSRWQQGNVFSCSVMHEALHNHYTQKSLSLSPGK | ~30 | 10 |
